The values that follow come from patent US20100158922A1.

This experiment concerns the target recombinant human IFNγ (human) (UniProt P01579). Put plainly: cell-based or functional assay.

Chain of recombinant human IFNγ (human) (P01579 24-166 limits assumed): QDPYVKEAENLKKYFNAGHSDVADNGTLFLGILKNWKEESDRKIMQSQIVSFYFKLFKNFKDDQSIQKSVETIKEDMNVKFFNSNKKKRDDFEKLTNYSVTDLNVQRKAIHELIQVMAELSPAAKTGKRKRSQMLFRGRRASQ

B1: AC1.2R3P7_D3 scFv (scFv, part only; not given: scFv linker, part only)
scFv, part: EVQLLESGGGLVQPGGSLKLSCAASGFTFSSNAMSWVRQAPGKGLEWVSTLTGSGGTAYYADSVEGRFSISRDNSKNTLYLQMNSLRAEDTAVYYCAKGTELVGGGLDNWGQGTLVTVSSNFMLTQPHSLSESPGKTVTISCTGSGGSIATNYVQWYQQRPGSAPTTVIHEDNQRPSGVPDRFSGSIDGSSNSASLTISGLQPEDEADYYCQSYDSDNHHVVFGGGTKLTVLG
As to B1, the Percentage inhibition of IFNγ-induced reporter gene expression at 0.011 nM scFv is 20%, the Percentage inhibition of IFNγ-induced reporter gene expression at 0.043 nM scFv worked out at 28%, the Percentage inhibition of IFNγ-induced reporter gene expression at 0.17 nM scFv amounted to 36% and the Percentage inhibition of IFNγ-induced reporter gene expression at 0.68 nM scFv was 55%. Besides, the Percentage inhibition of IFNγ-induced reporter gene expression at 2.7 nM scFv worked out at 69%.
